# Assay results from PMC9482650, “Quantitative fragmentomics allow affinity mapping of interactomes” (Nature Communications, 2022).
# T1: RAPGEF6, Q8TEU7
# T1 sequence (Q8TEU7 525-625, limits assumed, looked up): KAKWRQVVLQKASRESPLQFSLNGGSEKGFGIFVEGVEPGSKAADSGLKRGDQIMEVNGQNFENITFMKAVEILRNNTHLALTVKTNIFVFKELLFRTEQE
# T2: MPP6, Q9NZW5
# T2 sequence (Q9NZW5 125-219, limits assumed, looked up): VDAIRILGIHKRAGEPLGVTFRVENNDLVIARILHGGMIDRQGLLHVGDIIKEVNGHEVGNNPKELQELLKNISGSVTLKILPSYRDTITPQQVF
# T3: APBA2_1, Q99767
# T3 sequence (Q99767 563-664, limits assumed, looked up): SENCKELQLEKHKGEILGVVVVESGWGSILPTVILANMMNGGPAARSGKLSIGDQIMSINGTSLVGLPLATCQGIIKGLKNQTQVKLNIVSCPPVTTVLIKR
# T4: HTRA4, P83105
# T4 sequence (P83105 378-476, limits assumed, looked up): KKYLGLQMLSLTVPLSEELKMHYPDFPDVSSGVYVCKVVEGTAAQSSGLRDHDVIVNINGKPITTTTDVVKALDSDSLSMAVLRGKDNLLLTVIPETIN
# T5: APBA3_1, O96018
# T5 sequence (O96018 389-490, limits assumed, looked up): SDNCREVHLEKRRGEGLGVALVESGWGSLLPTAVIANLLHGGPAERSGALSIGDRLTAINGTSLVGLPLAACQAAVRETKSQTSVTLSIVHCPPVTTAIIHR
# T6: TIAM2, Q8IVF5
# T6 sequence (Q8IVF5 885-986, limits assumed, looked up): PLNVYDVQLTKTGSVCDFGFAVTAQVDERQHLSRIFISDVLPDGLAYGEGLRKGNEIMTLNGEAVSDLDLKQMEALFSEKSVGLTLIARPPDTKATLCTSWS
# T7: GRIP1_7, Q9Y3R0
# T7 sequence (Q9Y3R0 999-1096, limits assumed, looked up): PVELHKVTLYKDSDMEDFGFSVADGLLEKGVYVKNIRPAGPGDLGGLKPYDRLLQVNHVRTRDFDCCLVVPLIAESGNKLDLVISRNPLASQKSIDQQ
# T8: LNX2_3, Q8N448
# T8 sequence (Q8N448 463-564, limits assumed, looked up): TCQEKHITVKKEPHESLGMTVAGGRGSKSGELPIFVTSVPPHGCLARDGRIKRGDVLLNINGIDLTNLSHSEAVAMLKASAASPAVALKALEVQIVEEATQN
# T9: SNTB1, Q13884
# T9 sequence (Q13884 107-205, limits assumed, looked up): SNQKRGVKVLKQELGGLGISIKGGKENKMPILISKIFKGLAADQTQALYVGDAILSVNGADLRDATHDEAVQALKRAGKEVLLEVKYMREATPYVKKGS
# T10: SNTG1, Q9NSN8
# T10 sequence (Q9NSN8 52-150, limits assumed, looked up): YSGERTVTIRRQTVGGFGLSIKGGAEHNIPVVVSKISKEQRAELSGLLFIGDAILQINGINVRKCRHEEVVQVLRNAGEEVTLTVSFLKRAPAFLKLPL
# T11: RADIL, Q96JH8
# T11 sequence (Q96JH8 971-1071, limits assumed, looked up): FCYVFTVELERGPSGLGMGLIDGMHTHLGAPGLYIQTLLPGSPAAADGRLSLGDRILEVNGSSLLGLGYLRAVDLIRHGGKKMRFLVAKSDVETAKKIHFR
# T12: PDZD2_2, O15018
# T12 sequence (O15018 329-429, limits assumed, looked up): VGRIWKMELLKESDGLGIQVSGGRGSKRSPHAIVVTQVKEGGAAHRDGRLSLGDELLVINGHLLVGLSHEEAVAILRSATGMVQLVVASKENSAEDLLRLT
# Biological target: DLG1_1, Q12959
# Experiment: holdup assay
# Parameters: key: below the threshold = too weak to quantify, mostly under pKd 3.1 to 4
# Details: plain residues with an end cap or a label only (N-terminal biotin on a linker: ado-ado)
row,Binder,pKd
1,"EALLQMESVA [CAVIN3, Q969G5]",below the threshold
2,"IKAIVDLTGL [TRAF2, Q12933]",below the threshold

# Biological target: Inadl_3, Q8NI35
# Experiment: holdup assay
# Parameters: key: below the threshold = too weak to quantify, mostly under pKd 3.1 to 4
# Details: plain residues with an end cap or a label only (N-terminal biotin on a linker: ado-ado)
# Sequence of Inadl_3, Q8NI35 (Q8NI35 359-469): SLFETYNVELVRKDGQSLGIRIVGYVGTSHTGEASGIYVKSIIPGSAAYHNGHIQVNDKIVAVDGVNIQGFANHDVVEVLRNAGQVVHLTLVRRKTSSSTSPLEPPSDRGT
row,Binder,pKd
1,"EALLQMESVA [CAVIN3, Q969G5]",below the threshold
2,"IKAIVDLTGL [TRAF2, Q12933]",below the threshold

# Biological target: T1, RAPGEF6, Q8TEU7
# Experiment: holdup assay
# Parameters: key: below the threshold = too weak to quantify, mostly under pKd 3.1 to 4
# Details: plain residues with an end cap or a label only (N-terminal biotin on a linker: ado-ado)
row,Binder,pKd
1,"EALLQMESVA [CAVIN3, Q969G5]",below the threshold
2,"IKAIVDLTGL [TRAF2, Q12933]",below the threshold

# Biological target: T2, MPP6, Q9NZW5
# Experiment: holdup assay
# Parameters: key: below the threshold = too weak to quantify, mostly under pKd 3.1 to 4
# Details: plain residues with an end cap or a label only (N-terminal biotin on a linker: ado-ado)
row,Binder,pKd
1,"EALLQMESVA [CAVIN3, Q969G5]",below the threshold
2,"IKAIVDLTGL [TRAF2, Q12933]",3.49

# Biological target: T3, APBA2_1, Q99767
# Experiment: holdup assay
# Parameters: key: below the threshold = too weak to quantify, mostly under pKd 3.1 to 4
# Details: plain residues with an end cap or a label only (N-terminal biotin on a linker: ado-ado)
row,Binder,pKd
1,"EALLQMESVA [CAVIN3, Q969G5]",below the threshold
2,"IKAIVDLTGL [TRAF2, Q12933]",below the threshold

# Biological target: T4, HTRA4, P83105
# Experiment: holdup assay
# Parameters: key: below the threshold = too weak to quantify, mostly under pKd 3.1 to 4
# Details: plain residues with an end cap or a label only (N-terminal biotin on a linker: ado-ado)
row,Binder,pKd
1,"EALLQMESVA [CAVIN3, Q969G5]",below the threshold
2,"IKAIVDLTGL [TRAF2, Q12933]",below the threshold

# Biological target: T5, APBA3_1, O96018
# Experiment: holdup assay
# Parameters: key: below the threshold = too weak to quantify, mostly under pKd 3.1 to 4
# Details: plain residues with an end cap or a label only (N-terminal biotin on a linker: ado-ado)
row,Binder,pKd
1,"EALLQMESVA [CAVIN3, Q969G5]",below the threshold
2,"IKAIVDLTGL [TRAF2, Q12933]",below the threshold

# Biological target: T6, TIAM2, Q8IVF5
# Experiment: holdup assay
# Parameters: key: below the threshold = too weak to quantify, mostly under pKd 3.1 to 4
# Details: plain residues with an end cap or a label only (N-terminal biotin on a linker: ado-ado)
row,Binder,pKd
1,"EALLQMESVA [CAVIN3, Q969G5]",4.12
2,"IKAIVDLTGL [TRAF2, Q12933]",below the threshold

# Biological target: DLG4_1, P78352
# Experiment: holdup assay
# Parameters: key: below the threshold = too weak to quantify, mostly under pKd 3.1 to 4
# Details: plain residues with an end cap or a label only (N-terminal biotin on a linker: ado-ado)
# Sequence of DLG4_1, P78352 (P78352 62-152): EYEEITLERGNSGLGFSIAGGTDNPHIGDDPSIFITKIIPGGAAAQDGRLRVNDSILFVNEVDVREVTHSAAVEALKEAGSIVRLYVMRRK
row,Binder,pKd
1,"EALLQMESVA [CAVIN3, Q969G5]",below the threshold
2,"IKAIVDLTGL [TRAF2, Q12933]",below the threshold

# Biological target: Inadl_2, Q8NI35
# Experiment: holdup assay
# Parameters: key: below the threshold = too weak to quantify, mostly under pKd 3.1 to 4
# Details: plain residues with an end cap or a label only (N-terminal biotin on a linker: ado-ado)
# Sequence of Inadl_2, Q8NI35 (Q8NI35 238-335): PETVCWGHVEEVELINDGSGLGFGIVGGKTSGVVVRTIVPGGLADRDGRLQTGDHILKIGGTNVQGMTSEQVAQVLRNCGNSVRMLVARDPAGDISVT
row,Binder,pKd
1,"EALLQMESVA [CAVIN3, Q969G5]",below the threshold
2,"IKAIVDLTGL [TRAF2, Q12933]",below the threshold

# Biological target: PDLIM1, O00151
# Experiment: holdup assay
# Parameters: key: below the threshold = too weak to quantify, mostly under pKd 3.1 to 4
# Details: plain residues with an end cap or a label only (N-terminal biotin on a linker: ado-ado)
# Sequence of PDLIM1, O00151 (O00151 1-87): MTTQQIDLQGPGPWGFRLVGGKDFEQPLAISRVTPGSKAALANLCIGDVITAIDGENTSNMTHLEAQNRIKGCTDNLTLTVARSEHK
row,Binder,pKd
1,"EALLQMESVA [CAVIN3, Q969G5]",below the threshold
2,"IKAIVDLTGL [TRAF2, Q12933]",below the threshold

# Biological target: FRMPD2_2, Q68DX3
# Experiment: holdup assay
# Parameters: key: below the threshold = too weak to quantify, mostly under pKd 3.1 to 4
# Details: plain residues with an end cap or a label only (N-terminal biotin on a linker: ado-ado)
# Sequence of FRMPD2_2, Q68DX3 (Q68DX3 944-1038): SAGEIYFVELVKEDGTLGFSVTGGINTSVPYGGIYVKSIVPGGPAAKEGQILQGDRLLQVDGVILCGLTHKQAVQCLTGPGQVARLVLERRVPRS
row,Binder,pKd
1,"EALLQMESVA [CAVIN3, Q969G5]",below the threshold
2,"IKAIVDLTGL [TRAF2, Q12933]",below the threshold

# Biological target: LIMK2, P53671
# Experiment: holdup assay
# Parameters: key: below the threshold = too weak to quantify, mostly under pKd 3.1 to 4
# Details: plain residues with an end cap or a label only (N-terminal biotin on a linker: ado-ado)
# Sequence of LIMK2, P53671 (P53671 143-248): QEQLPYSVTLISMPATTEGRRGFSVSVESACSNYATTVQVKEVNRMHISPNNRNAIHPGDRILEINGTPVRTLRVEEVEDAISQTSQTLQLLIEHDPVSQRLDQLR
row,Binder,pKd
1,"EALLQMESVA [CAVIN3, Q969G5]",below the threshold
2,"IKAIVDLTGL [TRAF2, Q12933]",below the threshold

# Biological target: T7, GRIP1_7, Q9Y3R0
# Experiment: holdup assay
# Parameters: key: below the threshold = too weak to quantify, mostly under pKd 3.1 to 4
# Details: plain residues with an end cap or a label only (N-terminal biotin on a linker: ado-ado)
row,Binder,pKd
1,"EALLQMESVA [CAVIN3, Q969G5]",below the threshold
2,"IKAIVDLTGL [TRAF2, Q12933]",below the threshold

# Biological target: GRIP2_5, Q9C0E4
# Experiment: holdup assay
# Parameters: key: below the threshold = too weak to quantify, mostly under pKd 3.1 to 4
# Details: plain residues with an end cap or a label only (N-terminal biotin on a linker: ado-ado)
# Sequence of GRIP2_5, Q9C0E4 (Q9C0E4 544-642): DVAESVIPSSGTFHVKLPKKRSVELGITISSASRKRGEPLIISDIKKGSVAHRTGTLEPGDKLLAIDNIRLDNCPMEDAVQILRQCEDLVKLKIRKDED
row,Binder,pKd
1,"EALLQMESVA [CAVIN3, Q969G5]",below the threshold
2,"IKAIVDLTGL [TRAF2, Q12933]",below the threshold

# Biological target: TJP1_3, Q07157
# Experiment: holdup assay
# Parameters: key: below the threshold = too weak to quantify, mostly under pKd 3.1 to 4
# Details: plain residues with an end cap or a label only (N-terminal biotin on a linker: ado-ado)
# Sequence of TJP1_3, Q07157 (Q07157 416-512): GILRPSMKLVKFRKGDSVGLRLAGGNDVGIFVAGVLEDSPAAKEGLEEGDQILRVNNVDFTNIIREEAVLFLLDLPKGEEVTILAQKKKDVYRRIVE
row,Binder,pKd
1,"EALLQMESVA [CAVIN3, Q969G5]",below the threshold
2,"IKAIVDLTGL [TRAF2, Q12933]",below the threshold

# Biological target: T8, LNX2_3, Q8N448
# Experiment: holdup assay
# Parameters: key: below the threshold = too weak to quantify, mostly under pKd 3.1 to 4
# Details: plain residues with an end cap or a label only (N-terminal biotin on a linker: ado-ado)
row,Binder,pKd
1,"EALLQMESVA [CAVIN3, Q969G5]",below the threshold
2,"IKAIVDLTGL [TRAF2, Q12933]",below the threshold

# Biological target: T9, SNTB1, Q13884
# Experiment: holdup assay
# Parameters: key: below the threshold = too weak to quantify, mostly under pKd 3.1 to 4
# Details: plain residues with an end cap or a label only (N-terminal biotin on a linker: ado-ado)
row,Binder,pKd
1,"EALLQMESVA [CAVIN3, Q969G5]",below the threshold
2,"IKAIVDLTGL [TRAF2, Q12933]",below the threshold

# Biological target: DLG5_1, Q8TDM6
# Experiment: holdup assay
# Parameters: key: below the threshold = too weak to quantify, mostly under pKd 3.1 to 4
# Details: plain residues with an end cap or a label only (N-terminal biotin on a linker: ado-ado)
# Sequence of DLG5_1, Q8TDM6 (Q8TDM6 617-713): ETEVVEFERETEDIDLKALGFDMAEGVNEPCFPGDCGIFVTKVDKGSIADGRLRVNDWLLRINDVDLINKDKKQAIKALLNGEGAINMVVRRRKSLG
row,Binder,pKd
1,"EALLQMESVA [CAVIN3, Q969G5]",below the threshold
2,"IKAIVDLTGL [TRAF2, Q12933]",below the threshold

# Biological target: Inadl_5, Q8NI35
# Experiment: holdup assay
# Parameters: key: below the threshold = too weak to quantify, mostly under pKd 3.1 to 4
# Details: plain residues with an end cap or a label only (N-terminal biotin on a linker: ado-ado)
# Sequence of Inadl_5, Q8NI35 (Q8NI35 673-780): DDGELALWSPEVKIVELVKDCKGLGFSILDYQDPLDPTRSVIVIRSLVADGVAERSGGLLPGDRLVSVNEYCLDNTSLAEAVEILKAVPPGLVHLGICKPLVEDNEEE
row,Binder,pKd
1,"EALLQMESVA [CAVIN3, Q969G5]",below the threshold
2,"IKAIVDLTGL [TRAF2, Q12933]",below the threshold

# Biological target: T10, SNTG1, Q9NSN8
# Experiment: holdup assay
# Parameters: key: below the threshold = too weak to quantify, mostly under pKd 3.1 to 4
# Details: plain residues with an end cap or a label only (N-terminal biotin on a linker: ado-ado)
row,Binder,pKd
1,"EALLQMESVA [CAVIN3, Q969G5]",below the threshold
2,"IKAIVDLTGL [TRAF2, Q12933]",below the threshold

# Biological target: GRIP2_4, Q9C0E4
# Experiment: holdup assay
# Parameters: key: below the threshold = too weak to quantify, mostly under pKd 3.1 to 4
# Details: plain residues with an end cap or a label only (N-terminal biotin on a linker: ado-ado)
# Sequence of GRIP2_4, Q9C0E4 (Q9C0E4 446-548): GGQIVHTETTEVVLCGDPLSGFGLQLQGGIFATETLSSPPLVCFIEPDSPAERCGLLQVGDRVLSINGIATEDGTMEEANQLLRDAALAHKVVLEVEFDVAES
row,Binder,pKd
1,"EALLQMESVA [CAVIN3, Q969G5]",below the threshold
2,"IKAIVDLTGL [TRAF2, Q12933]",below the threshold

# Biological target: T11, RADIL, Q96JH8
# Experiment: holdup assay
# Parameters: key: below the threshold = too weak to quantify, mostly under pKd 3.1 to 4
# Details: plain residues with an end cap or a label only (N-terminal biotin on a linker: ado-ado)
row,Binder,pKd
1,"EALLQMESVA [CAVIN3, Q969G5]",below the threshold
2,"IKAIVDLTGL [TRAF2, Q12933]",below the threshold

# Biological target: T12, PDZD2_2, O15018
# Experiment: holdup assay
# Parameters: key: below the threshold = too weak to quantify, mostly under pKd 3.1 to 4
# Details: plain residues with an end cap or a label only (N-terminal biotin on a linker: ado-ado)
row,Binder,pKd
1,"EALLQMESVA [CAVIN3, Q969G5]",below the threshold
2,"IKAIVDLTGL [TRAF2, Q12933]",below the threshold

# Biological target: GRIP2_6, Q9C0E4
# Experiment: holdup assay
# Parameters: key: below the threshold = too weak to quantify, mostly under pKd 3.1 to 4
# Details: plain residues with an end cap or a label only (N-terminal biotin on a linker: ado-ado)
# Sequence of GRIP2_6, Q9C0E4 (Q9C0E4 648-740): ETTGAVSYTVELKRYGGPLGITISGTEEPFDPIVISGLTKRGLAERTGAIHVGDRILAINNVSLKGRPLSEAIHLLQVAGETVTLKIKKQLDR
row,Binder,pKd
1,"EALLQMESVA [CAVIN3, Q969G5]",below the threshold
2,"IKAIVDLTGL [TRAF2, Q12933]",below the threshold
